Results from US20200317768A1 (published 2020).

T1: human FcγRIIaR extracellular domain, C-terminal His-tag (human, UniProt P12318 34-217)
T1 construct: also called human FcγRIIa (type R); FcgRIIaR
T1 chain: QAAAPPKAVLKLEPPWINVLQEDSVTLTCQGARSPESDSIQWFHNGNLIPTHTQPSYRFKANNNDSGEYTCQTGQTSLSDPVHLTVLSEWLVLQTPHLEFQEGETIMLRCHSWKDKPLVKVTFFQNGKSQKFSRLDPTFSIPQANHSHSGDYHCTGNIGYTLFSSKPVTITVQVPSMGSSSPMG

T2: human FcγRIIaH extracellular domain, C-terminal His-tag (human, UniProt P12318 34-217)
T2 construct: also called human FcγRIIa (type H); FcgRIIaH
T2 sequence: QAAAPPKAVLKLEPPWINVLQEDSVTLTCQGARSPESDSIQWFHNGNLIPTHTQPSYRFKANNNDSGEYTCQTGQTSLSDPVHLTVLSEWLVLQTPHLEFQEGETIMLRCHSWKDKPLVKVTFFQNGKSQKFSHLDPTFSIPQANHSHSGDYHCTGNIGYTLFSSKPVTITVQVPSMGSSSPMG


Experiments:
[1] = molecular target: T1, human FcγRIIaR extracellular domain, …; assay: SPR 25C; FcgR bound per captured antibody, relative to parent B3
Procedure: (§1) These Fc variants are referred to as B3 variants. B3 variants were expressed and the binding of protein-A purified antibodies to each FcγR (FcγRIIa type H. FcγRIIa type R, FcγRIIb, and FcγRIIIaF) was comprehensively evaluated as follows. Analysis of interaction between each altered antibody and the Fcγ receptor prepared as mentioned above was carried out using BIACORE® T100 (GE Healthcare), BIACORE® T200 (GE Healthcare), BIACORE® A100, or BIACORE® 4000. HBS-EP+(GE Healthcare) was used as the running buffer, and the measurement temperature was set to 25° C. Chips produced by immobilizing Protein A (Thermo Scientific), Protein A/G (Thermo Scientific), or Protein L (ACTIGEN or BioVision) by the amine coupling method to a Series S sensor Chip CM5 or CM4 (GE Healthcare) were used. After capturing of antibodies of interest onto these sensor chips, an Fcγ receptor diluted with the running buffer was allowed to interact, the amount bound to an antibody was measured. However, since the amount of Fcγ receptor bound depends on the amount of the captured antibodies, the amount of Fcγ receptor bound was divided by the amount of each antibody captured to obtain corrected values, and these values were compared. Furthermore, antibodies captured onto the chips were washed by 10 mM glycine-HCl pH1.5, and the chips were regenerated and used repeatedly. […] The value obtained by multiplying this value by 100 was used as an indicator of the relative FcγR-binding activity of each variant.

[2] = molecular target: T2, human FcγRIIaH extracellular domain, …; assay: as above
Procedure: as §1

Binding to human FcgRs (parent B3 = 100) [1] [parent B3 = 100]	Binding to human FcgRs (parent B3 = 100) [2] [parent B3 = 100]	Binder
127	121	GpH7-B3 variant A330K/GpL16-k0 (antibody, human IgG1, kappa) heavy: not shown light: DIVMTQSPLSLPVTPGEPASISCQASESLVHSNRNTYLHWYLQKPGQSPQLLIYKVSNRFSGVPDRFSGSGSGTDFTLKISRVEAEDVGVYYCSQNTHVPPTFGQGTKVEIERTVAAPSVFIFPPSDEQLKSGTASVVCLLNNFYPREAKVQWKVDNALQSGNSQESVTEQDSKDSTYSLSSTLTLSKADYEKHKVYACEVTHQGLSSPVTKSFNRGEC
2	21	GpH7-B3 variant P238E/GpL16-k0 (antibody, human IgG1, kappa) heavy: not shown light: DIVMTQSPLSLPVTPGEPASISCQASESLVHSNRNTYLHWYLQKPGQSPQLLIYKVSNRFSGVPDRFSGSGSGTDFTLKISRVEAEDVGVYYCSQNTHVPPTFGQGTKVEIERTVAAPSVFIFPPSDEQLKSGTASVVCLLNNFYPREAKVQWKVDNALQSGNSQESVTEQDSKDSTYSLSSTLTLSKADYEKHKVYACEVTHQGLSSPVTKSFNRGEC
13	93	GpH7-B3 variant N325L/GpL16-k0 (antibody, human IgG1, kappa) heavy: not shown light: DIVMTQSPLSLPVTPGEPASISCQASESLVHSNRNTYLHWYLQKPGQSPQLLIYKVSNRFSGVPDRFSGSGSGTDFTLKISRVEAEDVGVYYCSQNTHVPPTFGQGTKVEIERTVAAPSVFIFPPSDEQLKSGTASVVCLLNNFYPREAKVQWKVDNALQSGNSQESVTEQDSKDSTYSLSSTLTLSKADYEKHKVYACEVTHQGLSSPVTKSFNRGEC
123	116	GpH7-B3 variant A330R/GpL16-k0 (antibody, human IgG1, kappa) heavy: not shown light: DIVMTQSPLSLPVTPGEPASISCQASESLVHSNRNTYLHWYLQKPGQSPQLLIYKVSNRFSGVPDRFSGSGSGTDFTLKISRVEAEDVGVYYCSQNTHVPPTFGQGTKVEIERTVAAPSVFIFPPSDEQLKSGTASVVCLLNNFYPREAKVQWKVDNALQSGNSQESVTEQDSKDSTYSLSSTLTLSKADYEKHKVYACEVTHQGLSSPVTKSFNRGEC
51	90	GpH7-B3 variant P271E/GpL16-k0 (antibody, human IgG1, kappa) heavy: not shown light: DIVMTQSPLSLPVTPGEPASISCQASESLVHSNRNTYLHWYLQKPGQSPQLLIYKVSNRFSGVPDRFSGSGSGTDFTLKISRVEAEDVGVYYCSQNTHVPPTFGQGTKVEIERTVAAPSVFIFPPSDEQLKSGTASVVCLLNNFYPREAKVQWKVDNALQSGNSQESVTEQDSKDSTYSLSSTLTLSKADYEKHKVYACEVTHQGLSSPVTKSFNRGEC
